From publication PMC5660092

Target: Bcl-2 (UniProt P10415)
Experiment: co-IP of Flag-Beclin 1
Settings: reference: wild type; sites S90

binding against the reference: stronger
Substance: Beclin 1 (from UniProt Q14457) S90A
